# Earlier results in paper PMC10148413.
# Molecular target: histone H3K4 methylated peptide (Homo sapiens) (UniProt P68431)
substance,measurement,value
ASH1L PHD (from UniProt Q9NR48),Kd,150 µM
